Laboratory results as given in patent publication US20150337336A1 (PHYTOGENE, published 2015).

Target: the molecule itself
Experiment: X-ray crystal structure at 2.15 Å, space group C2, 3 chains per asymmetric unit; homodimer seen in the crystal
Protocol: Crystals of mutant cinnamic acid decarboxylase FDC (K190E) in complex with 3-hydroxyl cinnamic acid were grown by the vapor diffusion method. Commercial screening Kit (Hampton research, Qiagen, Emerald Biosystems) was used for screening crystallization conditions. Different volume ratio of protein and reservoir were tested for crystallization. Hanging drops containing a 1:1, 1:2, or 2:1 mixture of protein (5-10 mg/ml) and crystallization buffer (10% (w/v) polyethylene glycol (PEG) 6000, 5% (w/v) 2-methyl-2,4-pantanediol (MPD), 0.1 M HEPES, pH 7.5, and 2 mM DTT) were maintained at 4° C. In particular, well diffracted crystals were grown in 7-11% (w/v) polyethylene glycol (PEG) 6000, 3% (w/v) 2-methyl-2,4-pantanediol (MPD), pH 6.5-7.5, and 2 mM DTT with 0.1% 3-hydroxyl cinnamic acid. Crystal conditions were further improved by adding 0.01M MnCl2, 0.5% (w/v) polyvinylpyrrolidone K15, 0.2M NDSB-201 or 2% (w/v) benzamidine hydrochloride as an additive.
The FDC(K190E) crystals grew in space group C2 with 3 chains per asymmetric unit. Unit cell dimensions for the crystal were a=249.51 Å, b=120.67 Å, c=158.49 Å, β=94.9°; Diffraction data were collected from single crystals mounted in a cryoloop and flash frozen in a nitrogen stream at 100 K and reduced with the HKL suite. Crystals were diffracted at 2.15 Å resolution. […]

B1: mutant cinnamic acid decarboxylase FDC (K190E) (enzyme)
chain: MRKLNPALEFRDFIQVLKDEDDLIEITEEIDPNLEVGAIMRKAYESHLPAPLFKNLKGASKDLFSILGCPAGLRSKEKGDHGRIAHHLGLDPKTTIKEIIDYLLECKEKEPLPPITVPVSSAPCKTHILSEEKIHLQSLPTPYLHVSDGGKYLQTYGMWILQTPDKKWTNWSIARGMVVDDKHITGLVIEPQHIRQIADSWAAIGKANEIPFALCFGVPPAAILVSSMPIPEGVSESDYVGAILGESVPVVKCETNDLMVPATSEMVFEGTLSLTDTHLEGPFGEMHGYVFKSQGHPCPLYTVKAMSYRDNAILPVSNPGLCTDETHTLIGSLVATEAKELAIESGLPILDAFMPYEAQALWLILKVDLKGLQALKTTPEEFCKKVGDIYFRTKVGFIVHEIILVADDIDIFNFKEVIWAYVTRHTPVADQMAFDDVTSFPLAPFVSQSSRSKTMKGGKCVTNCIFRQQYERSFDYITCNFEKGYPKGLVDKVNENWKRYGYK
notes: It was purified by the same process as FDC1: an N-terminal 6-His/SUMO tag was cleaved off by hydrolase; It was crystallised in complex with the small molecule 3-hydroxyl cinnamic acid; also called FDC1 K190E mutant; FDC mutant (K190E)
Does B1 bind?
Result: binds
